Test results as given in patent US20260234211A1, “POLYPEPTIDE HAVING MODIFIED STRUCTURE AND USE THEREOF” (Guangdong Raynovent Biotech Co., Ltd., priority 2023, published 2026).

What was measured:
Test in all cases: cell-based or functional assay
GLP-1 receptor (GLP-1R) = molecular target: GLP-1 receptor (GLP-1R)
GCG receptor (GCGR) = molecular target: GCG receptor (GCGR)
GIP receptor (GIPR) = molecular target: T1, GIP receptor (GIPR)
T1 sequence (P48546 whole entry, species assumed, looked up): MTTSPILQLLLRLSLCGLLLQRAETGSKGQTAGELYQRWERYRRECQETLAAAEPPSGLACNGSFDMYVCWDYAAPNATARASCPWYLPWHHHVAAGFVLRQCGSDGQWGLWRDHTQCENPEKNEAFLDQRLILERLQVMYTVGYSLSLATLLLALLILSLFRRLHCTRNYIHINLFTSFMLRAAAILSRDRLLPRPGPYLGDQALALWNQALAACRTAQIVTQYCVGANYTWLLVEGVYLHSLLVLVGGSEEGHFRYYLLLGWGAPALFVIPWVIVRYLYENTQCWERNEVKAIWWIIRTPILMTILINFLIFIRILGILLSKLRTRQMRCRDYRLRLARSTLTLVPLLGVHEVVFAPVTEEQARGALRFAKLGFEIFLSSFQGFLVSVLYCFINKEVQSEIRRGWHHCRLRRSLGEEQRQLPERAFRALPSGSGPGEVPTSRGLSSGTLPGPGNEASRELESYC

GLP-1 EC50 (nM), cAMP assay on HEK293 cells with GLP-1R (GLP-1 receptor (GLP-1R)) [nM] | GCG EC50 (nM), cAMP assay on HEK293 cells with GCGR (GCG receptor (GCGR)) [nM] | GIP-1 EC50 (nM), cAMP assay on CHO cells with GIPR (GIP receptor (GIPR)) [nM] | Substance
0.001 |  |  | Human GLP-1 (7-37) (from UniProt P01275 21-180) (ligand)
 | 0.001 |  | Human Glucagon (from UniProt P01275 53-81) (ligand)
0.014 | 0.031 | 0.001 | LY3437943 (peptide)
